From article PMC4681132 (Nature, 2015)

T1: RNA polymerase III subunit C160 (S. cerevisiae, UniProt P04051 1-1460)
T1 sequence: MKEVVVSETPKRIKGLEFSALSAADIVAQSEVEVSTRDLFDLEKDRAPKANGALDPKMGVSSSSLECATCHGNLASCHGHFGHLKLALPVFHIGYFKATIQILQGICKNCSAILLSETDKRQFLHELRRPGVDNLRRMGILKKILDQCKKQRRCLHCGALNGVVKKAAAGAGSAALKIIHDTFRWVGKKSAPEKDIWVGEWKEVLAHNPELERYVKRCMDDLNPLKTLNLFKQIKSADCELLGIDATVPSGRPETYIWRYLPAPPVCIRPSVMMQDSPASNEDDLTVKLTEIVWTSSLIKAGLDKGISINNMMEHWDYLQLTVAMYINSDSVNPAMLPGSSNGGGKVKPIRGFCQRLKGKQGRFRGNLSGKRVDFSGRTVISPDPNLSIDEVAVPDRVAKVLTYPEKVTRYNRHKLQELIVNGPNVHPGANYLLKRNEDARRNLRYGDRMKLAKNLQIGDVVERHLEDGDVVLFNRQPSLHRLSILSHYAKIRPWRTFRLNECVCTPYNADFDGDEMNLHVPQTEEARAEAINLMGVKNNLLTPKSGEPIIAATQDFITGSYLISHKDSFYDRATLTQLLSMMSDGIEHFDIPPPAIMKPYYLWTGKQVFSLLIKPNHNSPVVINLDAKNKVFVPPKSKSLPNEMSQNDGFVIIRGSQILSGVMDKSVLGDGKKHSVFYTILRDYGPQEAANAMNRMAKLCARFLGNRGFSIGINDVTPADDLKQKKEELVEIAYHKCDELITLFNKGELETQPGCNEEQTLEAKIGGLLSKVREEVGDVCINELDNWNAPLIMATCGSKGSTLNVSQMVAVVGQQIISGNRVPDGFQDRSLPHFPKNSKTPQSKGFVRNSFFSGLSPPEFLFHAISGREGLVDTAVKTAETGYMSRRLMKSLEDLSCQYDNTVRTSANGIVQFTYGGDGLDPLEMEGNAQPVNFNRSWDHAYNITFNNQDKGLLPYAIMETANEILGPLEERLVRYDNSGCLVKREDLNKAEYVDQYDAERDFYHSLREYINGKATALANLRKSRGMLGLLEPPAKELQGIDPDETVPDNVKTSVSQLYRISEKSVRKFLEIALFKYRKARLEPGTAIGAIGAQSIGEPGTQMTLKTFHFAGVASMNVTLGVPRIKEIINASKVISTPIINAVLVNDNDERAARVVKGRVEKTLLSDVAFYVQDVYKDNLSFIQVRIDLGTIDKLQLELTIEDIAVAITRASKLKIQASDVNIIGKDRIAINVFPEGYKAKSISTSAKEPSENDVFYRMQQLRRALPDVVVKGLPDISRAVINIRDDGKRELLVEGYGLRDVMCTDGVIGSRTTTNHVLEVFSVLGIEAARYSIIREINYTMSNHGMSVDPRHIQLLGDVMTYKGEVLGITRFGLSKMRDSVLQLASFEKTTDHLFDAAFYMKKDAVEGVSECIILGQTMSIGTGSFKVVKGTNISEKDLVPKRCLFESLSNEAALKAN

B1: Pol III stalk (subunits C17 and C25) (complex, S. cerevisiae)
chain 1: MKVLEERNAFLSDYEVLKFLTDLEKKHLWDQKSLAALKKSRSKGKQNRPYNHPELQGITRNVVNYLSINKNFINQEDEGEERESSGAKDAEKSGISKMSDESFAELMTKLNSFKLFKAEKLQIVNQLPANMVHLYSIVEECDARFDEKTIEEMLEIISGYA
chain 2: MFILSKIADLVRIPPDQFHRDTISAITHQLNNKFANKIIPNVGLCITIYDLLTVEEGQLKPGDGSSYINVTFRAVVFKPFLGEIVTGWISKCTAEGIKVSLLGIFDDIFIPQNMLFEGCYYTPEESAWIWPMDEETKLYFDVNEKIRFRIEREVFVDVKPKSPKERELEERAQLENEIEGKNEETPQNEKPPAYALLGSCQTDGMGLVSWWE
B2: RNA polymerase III subunit C82 (natural protein, S. cerevisiae)
chain: MDELLGEALSAENQTGESTVESEKLVTPEDVMTISSLEQRTLNPDLFLYKELVKAHLGERAASVIGMLVALGRLSVRELVEKIDGMDVDSVKTTLVSLTQLRCVKYLQETAISGKKTTYYYYNEEGIHILLYSGLIIDEIITQMRVNDEEEHKQLVAEIVQNVISLGSLTVEDYLSSVTSDSMKYTISSLFVQLCEMGYLIQISKLHYTPIEDLWQFLYEKHYKNIPRNSPLSDLKKRSQAKMNAKTDFAKIINKPNELSQILTVDPKTSLRIVKPTVSLTINLDRFMKGRRSKQLINLAKTRVGSVTAQVYKIALRLTEQKSPKIRDPLTQTGLLQDLEEAKSFQDEAELVEEKTPGLTFNAIDLARHLPAELDLRGSLLSRKPSDNKKRSGSNAAASLPSKKLKTEDGFVIPALPAAVSKSLQESGDTQEEDEEEEDLDADTEDPHSASLINSHLKILASSNFPFLNETKPGVYYVPYSKLMPVLKSSVYEYVIASTLGPSAMRLSRCIRDNKLVSEKIINSTALMKEKDIRSTLASLIRYNSVEIQEVPRTADRSASRAVFLFRCKETHSYNFMRQNLEWNMANLLFKKEKLKQENSTLLKKANRDDVKGRENELLLPSELNQLKMVNERELNVFARLSRLLSLWEVFQMA

Tests used:
Assay in all cases: cryo-EM structure
[1] = target: T1, RNA polymerase III subunit C160
[2] = target: B2
[3] = target: B1

Row | binding result [1] | binding result [2] | binding result [3] | Binder
1 | binds | – | – | B1
2 | binds | – | – | RNA polymerase III stalk subunit C25 (natural protein, S. cerevisiae) MFILSKIADLVRIPPDQFHRDTISAITHQLNNKFANKIIPNVGLCITIYDLLTVEEGQLKPGDGSSYINVTFRAVVFKPFLGEIVTGWISKCTAEGIKVSLLGIFDDIFIPQNMLFEGCYYTPEESAWIWPMDEETKLYFDVNEKIRFRIEREVFVDVKPKSPKERELEERAQLENEIEGKNEETPQNEKPPAYALLGSCQTDGMGLVSWWE
3 | binds | – | – | B2
4 | binds | binds | – | RNA polymerase III subunit C34 (natural protein, S. cerevisiae) MSGMIENGLQLSDNAKTLHSQMMSKGIGALFTQQELQKQMGIGSLTDLMSIVQELLDKNLIKLVKQNDELKFQGVLESEAQKKATMSAEEALVYSYIEASGREGIWSKTIKARTNLHQHVVLKCLKSLESQRYVKSVKSVKFPTRKIYMLYSLQPSVDITGGPWFTDGELDIEFINSLLTIVWRFISENTFPNGFKNFENGPKKNVFYAPNVKNYSTTQEILEFITAAQVANVELTPSNIRSLCEVLVYDDKLEKVTHDCYRVTLESILQMNQGEGEPEAGNKALEDEEEFSIFNYFKMFPASKHDKEVVYFDEWTI
5 | – | binds | binds | RNA polymerase III subunit C31 (natural protein, S. cerevisiae, UniProt P17890 1-251, looked up) MSSYRGGSRGGGSNYMSNLPFGLGYGDVGKNHITEFPSIPLPINGPITNKERSLAVKYINFGKTVKDGPFYTGSMSLIIDQQENSKSGKRKPNIILDEDDTNDGIERYSDKYLKKRKIGISIDDHPYNLNLFPNELYNVMGINKKKLLAISKFNNADDVFTGTGLQDENIGLSMLAKLKELAEDVDDASTGDGAAKGSKTGEGEDDDLADDDFEEDEDEEDDDDYNAEKYFNNGDDDDYGDEEDPNEEAAF
